Source: patent US20070015194A1 (RAMOT AT TEL AVIV UNIVERSITY, published 2007)

Target: T1, CC2D1A protein (coiled-coil and C2 domain containing 1A), wild type, human, GenBank Accession No. NP-060191 (human, UniProt Q6P1N0 1-951)
T1 construct: Endogenous protein in lysates of lymphoblast or lymphoblastoid cells from unaffected individuals; It is the long isoform of 951 amino acids, seen as a band of about 104 kDa; also called FLJ20241; wild type protein
T1 sequence: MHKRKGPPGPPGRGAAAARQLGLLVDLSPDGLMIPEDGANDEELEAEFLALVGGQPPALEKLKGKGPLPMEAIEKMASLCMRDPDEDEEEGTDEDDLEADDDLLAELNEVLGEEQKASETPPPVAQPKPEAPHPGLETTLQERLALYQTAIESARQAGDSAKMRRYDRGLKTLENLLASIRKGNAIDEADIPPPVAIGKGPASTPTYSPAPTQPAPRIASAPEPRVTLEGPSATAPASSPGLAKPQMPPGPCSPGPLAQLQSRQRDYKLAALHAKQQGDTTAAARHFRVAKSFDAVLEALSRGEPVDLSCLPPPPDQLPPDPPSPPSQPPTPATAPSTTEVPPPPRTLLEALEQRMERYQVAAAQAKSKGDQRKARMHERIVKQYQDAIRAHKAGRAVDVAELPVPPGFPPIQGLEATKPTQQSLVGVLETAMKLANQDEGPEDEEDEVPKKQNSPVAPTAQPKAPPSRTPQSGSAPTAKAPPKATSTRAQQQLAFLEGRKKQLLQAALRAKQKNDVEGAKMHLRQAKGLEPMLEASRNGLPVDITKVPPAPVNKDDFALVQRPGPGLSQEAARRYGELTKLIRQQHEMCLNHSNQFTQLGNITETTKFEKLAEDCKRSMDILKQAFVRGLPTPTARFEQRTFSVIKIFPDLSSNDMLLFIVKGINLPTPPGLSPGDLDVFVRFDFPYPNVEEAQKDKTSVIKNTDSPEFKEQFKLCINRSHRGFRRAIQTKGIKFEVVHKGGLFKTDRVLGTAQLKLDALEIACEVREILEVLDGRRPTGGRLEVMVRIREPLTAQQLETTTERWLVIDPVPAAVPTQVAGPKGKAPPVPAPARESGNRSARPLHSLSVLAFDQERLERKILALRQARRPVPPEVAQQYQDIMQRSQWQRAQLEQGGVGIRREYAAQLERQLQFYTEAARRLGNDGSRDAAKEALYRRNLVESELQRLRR
Experiment: co-immunoprecipitation of endogenous proteins from control lymphoblastoid cell extracts with anti-CC2D1A antibody, Western blot with anti-p50 (data not shown)
Experimental: Western blot—Lymphoblast cell proteins were subjected to Western blot analysis using the CC2D1A antibody. Briefly, cells were washed twice with PBS and lysed at 4° C. with lysis buffer (0.6% NP40 and protease inhibitors). After 15 minutes of incubation, cell lysates were centrifuged for 5 minutes at 14,000 rpm and supernatants were collected. Protein concentrations were determined using the BCA Protein Assay Reagent Kit (PIERCE). Whole-cell proteins (approximately 20 μg) were subjected to 7.5% SDS-PAGE and transferred to nitrocellulose membranes. The membranes were blocked for 30 minutes at room temperature with 5% skim milk in Tris-buffer (10 mM Tris, 150 mM NaCl, and 0.1% Tween-20) and subsequently incubated with anti-CC2D1A rabbit polyclonal antibody (BL695, Bethyl laboratories) diluted 1:20000, rabbit polyclonal anti-emerin (sc-15378, Santa Cruz Biotechnology) diluted 1:5000, mouse monoclonal antibody anti-NF-κB p50 (sc-8414, Santa Cruz Biotechnology) diluted 1:1000 or mouse monoclonal antibody p65 (sc-8008, Santa Cruz Biotechnology) diluted 1:5000. After washing and subsequent incubation for 1 hour with horseradish peroxidase coupled to anti-rabbit IgG or mouse IgG respectively (Jackson ImmunoResearch Laboratories, West Grove, Pa.), immunoreactive proteins were visualized by an ECL (enhanced chemiluminescence super signal) Detection Kit (PIERCE). […]

B1: p50 subunit of NF-κB (other, human, UniProt P19838 1-433, looked up)
chain: MAEDDPYLGRPEQMFHLDPSLTHTIFNPEVFQPQMALPTDGPYLQILEQPKQRGFRFRYVCEGPSHGGLPGASSEKNKKSYPQVKICNYVGPAKVIVQLVTNGKNIHLHAHSLVGKHCEDGICTVTAGPKDMVVGFANLGILHVTKKKVFETLEARMTEACIRGYNPGLLVHPDLAYLQAEGGGDRQLGDREKELIRQAALQQTKEMDLSVVRLMFTAFLPDSTGSFTRRLEPVVSDAIYDSKAPNASNLKIVRMDRTAGCVTGGEEIYLLCDKVQKDDIQIRFYEEEENGGVWEGFGDFSPTDVHRQFAIVFKTPKYKDINITKPASVFVQLRRKSDLETSEPKPFLYYPEIKDKEEVQRKRQKLMPNFSDSFGGGSGAGAGGGGMFGSGGGGGGTGSTGPGYSFPHYGFPTYGGITFHPGTTKSNAGMKHG
notes: Endogenous protein; also called NF-κB p50
B1: no binding.
